For the data set, the target named is T1, TaB3-2A1-GST (Triticum aestivum, UniProt A0A3B6AVE6 1-220).
T1 sequence: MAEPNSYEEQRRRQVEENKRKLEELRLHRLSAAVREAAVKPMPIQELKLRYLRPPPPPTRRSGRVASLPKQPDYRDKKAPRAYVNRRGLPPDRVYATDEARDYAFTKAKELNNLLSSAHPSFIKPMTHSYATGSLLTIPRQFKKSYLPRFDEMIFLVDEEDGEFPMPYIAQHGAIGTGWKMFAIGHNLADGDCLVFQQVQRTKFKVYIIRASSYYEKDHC
Nature of the data set: EMSA. (In EMSA bound probe runs differently from free probe, usually more slowly.)

B1: CCRM1-1 probe (dsDNA)
DNA 1: CTTTTGTGTTGGCAAACTGCGCTTTTCCAACCGATTTTGTTCTTCTCGCGCTTTCTTCTTAGGCTAAACAAACCTCACCGTGCACGCAGCCATGGTCCTGAACCTTCA
DNA 2: TGAAGGTTCAGGACCATGGCTGCGTGCACGGTGAGGTTTGTTTAGCCTAAGAAGAAAGCGCGAGAAGAACAAAATCGGTTGGAAAAGCGCAGTTTGCCAACACAAAAG
Turning to B1, the binding result is recorded as “binds”.

(Values after article PMC10502752.)
